Assay results reported in article PMC7596504, “Molecular mechanism of the MORC4 ATPase activation” (Nature Communications, 2020).

Tests used:
MORC4 [1] = assay: ATPase activity assay (EnzChek Phosphate Assay Kit); type: biochemical, human; set-up: Rate of ATP hydrolysis: unit not given here
Description: (§1) To determine whether MORC4 is catalytically active, we produced the ATPase domain of human MORC4 and examined its ability to hydrolyze ATP in enzymatic assays (Fig. 1a–c). Following incubation of the ATPase domain with ATP, 2-amino-6-mercapto-7-methylpurine ribonucleoside and nucleoside phosphorylase, the release of inorganic phosphate generated by the hydrolysis of ATP to ADP was monitored by measuring an increase in absorbance at 360 nm.
(§2) The ATPase assays were performed using the EnzChek Phosphate Assay Kit (Invitrogen, item # E6646). The reactions were carried out on 1.0 µM of MORC4 His-ATPase or ATPaseCW (WT and mutants), in the presence and absence of 1 µM 601 DNA or 50 µM of unmodified H3 or H3K4me3 peptide (aa 1–12 of H3) in a buffer containing 50 mM Tris-HCl (pH 7.5), 150 mM NaCl, 1 mM MgCl2, 0.1 mM sodium azide, 200 µM MESG, and 1 U of PNP. In assay with the nucleosome, 0.5 µM of MORC4 ATPaseCW and 0.5 µM NCP167 (Activemotif) were used. The reaction was started by adding 2 mM ATP to the mixture at room temperature, and the release of inorganic phosphate was monitored by measuring the absorbance at 360 nm on a Nanodrop 2000c spectrophotometer (Thermo Scientific). In the presence of inorganic phosphate, produced by the hydrolysis of ATP to ADP, MESG is enzymatically converted to ribose 1-phosphate and […] by PNP, resulting in a shift in the wavelength absorbance from 330 nm for MESG to 360 nm for the product. The rate of ATP self-hydrolysis was measured in parallel. Error was calculated as the S.D. of at least three separate experiments (two in Fig. 4j).

MORC4 [2] = molecular target: T1, MORC4 (Homo sapiens, UniProt Q8TE76); assay: as above; type: biochemical; set-up: Rate of ATP hydrolysis: unit not given here; conditions: Supp. Fig. 1
T1 construct: the ATPaseCW cassette (aa 29–486) of human MORC4 (Q8TE76); GST (cleaved yes); made in house; host or cells: E. coli Rosetta2 (DE3) pLysS or BL21 (DE3) RIL
T1 sequence (Q8TE76 1-937): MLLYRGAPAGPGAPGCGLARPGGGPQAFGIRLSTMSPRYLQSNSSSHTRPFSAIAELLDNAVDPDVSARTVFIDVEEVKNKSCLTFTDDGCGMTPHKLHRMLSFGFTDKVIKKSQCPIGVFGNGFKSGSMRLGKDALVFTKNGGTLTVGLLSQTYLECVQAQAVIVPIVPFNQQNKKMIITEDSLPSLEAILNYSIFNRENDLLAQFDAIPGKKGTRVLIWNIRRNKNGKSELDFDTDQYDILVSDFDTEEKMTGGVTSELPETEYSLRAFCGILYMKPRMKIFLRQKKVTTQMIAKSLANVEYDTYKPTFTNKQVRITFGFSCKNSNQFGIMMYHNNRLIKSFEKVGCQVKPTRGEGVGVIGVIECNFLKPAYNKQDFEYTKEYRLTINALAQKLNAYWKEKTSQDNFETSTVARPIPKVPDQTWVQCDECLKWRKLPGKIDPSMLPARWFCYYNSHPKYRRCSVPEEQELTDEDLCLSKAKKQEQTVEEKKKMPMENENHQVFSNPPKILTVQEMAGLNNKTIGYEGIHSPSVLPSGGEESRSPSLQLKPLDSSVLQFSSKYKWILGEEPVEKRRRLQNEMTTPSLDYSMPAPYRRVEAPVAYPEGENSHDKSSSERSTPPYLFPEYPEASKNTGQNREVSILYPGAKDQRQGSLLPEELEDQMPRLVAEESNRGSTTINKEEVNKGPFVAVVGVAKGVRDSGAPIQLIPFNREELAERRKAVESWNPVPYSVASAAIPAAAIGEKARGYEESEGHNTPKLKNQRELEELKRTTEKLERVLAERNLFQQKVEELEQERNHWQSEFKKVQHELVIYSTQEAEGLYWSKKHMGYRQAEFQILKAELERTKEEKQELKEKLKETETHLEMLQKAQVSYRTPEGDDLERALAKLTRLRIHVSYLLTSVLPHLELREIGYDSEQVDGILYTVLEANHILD
Description: as §1, §2

Rate of ATP hydrolysis (MORC4 [1]; + H3K4me3 + 601 DNA, Fig. 1c, mean of 3): 0.3353
Rate of ATP hydrolysis (MORC4 [1]; + H3K4me3 + 601 DNA, Fig. 1c, replicate 1): 0.3507
Rate of ATP hydrolysis (MORC4 [1]; + H3K4me3 + 601 DNA, Fig. 1c, replicate 2): 0.3597
Rate of ATP hydrolysis (MORC4 [1]; + H3K4me3 + 601 DNA, Fig. 1c, replicate 3): 0.2954
Rate of ATP hydrolysis (MORC4 [1]; + H3un + 601 DNA, Fig. 1c, mean of 3): 0.3154
Rate of ATP hydrolysis (MORC4 [1]; + H3un + 601 DNA, Fig. 1c, replicate 1): 0.2842
Rate of ATP hydrolysis (MORC4 [1]; + H3un + 601 DNA, Fig. 1c, replicate 2): 0.3368
Rate of ATP hydrolysis (MORC4 [1]; + H3un + 601 DNA, Fig. 1c, replicate 3): 0.3251
Rate of ATP hydrolysis (MORC4 [1]; no DNA, no peptide, 1.0 µM protein, 2 mM ATP, pH 7.5, room temperature, absorbance 360 nm, Fig. 1b,c, mean): 0.09309
Rate of ATP hydrolysis (MORC4 [1]; no DNA, no peptide, Fig. 1b,c, replicate 1): 0.08409
Rate of ATP hydrolysis (MORC4 [1]; no DNA, no peptide, Fig. 1b,c, replicate 2): 0.08589
Rate of ATP hydrolysis (MORC4 [1]; no DNA, no peptide, Fig. 1b,c, replicate 3): 0.1093
Rate of ATP hydrolysis (MORC4 [2]; 0.5 µM MORC4 ATPaseCW + 0.5 µM NCP167, mean of 3): 0.468
Rate of ATP hydrolysis (MORC4 [2]; 0.5 µM MORC4 ATPaseCW + 0.5 µM NCP167, replicate 1): 0.5696
Rate of ATP hydrolysis (MORC4 [2]; 0.5 µM MORC4 ATPaseCW + 0.5 µM NCP167, replicate 2): 0.408
Rate of ATP hydrolysis (MORC4 [2]; 0.5 µM MORC4 ATPaseCW + 0.5 µM NCP167, replicate 3): 0.4265
Rate of ATP hydrolysis (MORC4 [2]; 0.5 µM MORC4 ATPaseCW, without NCP167, mean of 3): 0.2339
Rate of ATP hydrolysis (MORC4 [2]; 0.5 µM MORC4 ATPaseCW, without NCP167, replicate 1): 0.309
Rate of ATP hydrolysis (MORC4 [2]; 0.5 µM MORC4 ATPaseCW, without NCP167, replicate 2): 0.1285
Rate of ATP hydrolysis (MORC4 [2]; 0.5 µM MORC4 ATPaseCW, without NCP167, replicate 3): 0.2641
B1: ATPaseCW: ATPaseCW cassette (aa 29–486) of human MORC4 (Q8TE76) (protein)
chain: GIRLSTMSPRYLQSNSSSHTRPFSAIAELLDNAVDPDVSARTVFIDVEEVKNKSCLTFTDDGCGMTPHKLHRMLSFGFTDKVIKKSQCPIGVFGNGFKSGSMRLGKDALVFTKNGGTLTVGLLSQTYLECVQAQAVIVPIVPFNQQNKKMIITEDSLPSLEAILNYSIFNRENDLLAQFDAIPGKKGTRVLIWNIRRNKNGKSELDFDTDQYDILVSDFDTEEKMTGGVTSELPETEYSLRAFCGILYMKPRMKIFLRQKKVTTQMIAKSLANVEYDTYKPTFTNKQVRITFGFSCKNSNQFGIMMYHNNRLIKSFEKVGCQVKPTRGEGVGVIGVIECNFLKPAYNKQDFEYTKEYRLTINALAQKLNAYWKEKTSQDNFETSTVARPIPKVPDQTWVQCDECLKWRKLPGKIDPSMLPARWFCYYNSHPKYRRCSVPEEQELTDEDLCLSKAKKQE
modifications: left off: GST, end not stated, cleaved
